Data published in IntAct's records for PubMed 22078559.

B1: Double-strand break repair protein MRE11 (Homo sapiens), P49959 (parent)
chain: MSTADALDDENTFKILVATDIHLGFMEKDAVRGNDTFVTLDEILRLAQENEVDFILLGGDLFHENKPSRKTLHTCLELLRKYCMGDRPVQFEILSDQSVNFGFSKFPWVNYQDGNLNISIPVFSIHGNHDDPTGADALCALDILSCAGFVNHFGRSMSVEKIDISPVLLQKGSTKIALYGLGSIPDERLYRMFVNKKVTMLRPKEDENSWFNLFVIHQNRSKHGSTNFIPEQFLDDFIDLVIWGHEHECKIAPTKNEQQLFYISQPGSSVVTSLSPGEAVKKHVGLLRIKGRKMNMHKIPLHTVRQFFMEDIVLANHPDIFNPDNPKVTQAIQSFCLEKIEEMLENAERERLGNSHQPEKPLVRLRVDYSGGFEPFSVLRFSQKFVDRVANPKDIIHFFRHREQKEKTGEEINFGKLITKPSEGTTLRVEDLVKQYFQTAEKNVQLSLLTERGMGEAVQEFVDKEEKDAIEELVKYQLEKTQRFLKERHIDALEDKIDEEVRRFRETRQKNTNEEDDEVREAMTRARALRSQSEESASAFSADDLMSIDLAEQMANDSDDSISAATNKGRGRGRGRRGGRGQNSASRGGSQRGRADTGLETSTRSRNSKTAVSASRNMSIIDAFKSTRQQPSRNVTTKNYSEVIEVDESDVEEDIFPTTSKTDQRWSSTSSSKIMSQSQVSKGVDFESSEDDDDDPFMNTSSLRRNRR

Variants of: B1
Conditions: with nbn_human NBN

Variant	effect of a mutation on the interaction
P121G	disrupting interaction
R80A	disrupting interaction
N117L	disrupting interaction
S104C	decreasing interaction
D86L	decreasing interaction

More lines, now with the values ahead:

effect of a mutation on the interaction	Variant
disrupting interaction	R202G
decreasing interaction	C146A
